Each block holds one molecule with its values, some of them ahead of it. Square brackets hold non-standard residues; d marks the D form. Side chains are listed from the residue outwards. * marks the point of attachment. 5FAM = O=C1OC2(c3ccc(O)cc3Oc3cc(O)ccc32)c2ccc(C(=O)*)cc21; Linker2 = 6-aminohexyl amide linker
Tests used:
[1] = Cytotoxicity, viability of HepG2 cells by Cell Counting Kit-8 (CCK-8); format: cell-based; details: human, HepG2, 1.5625-50 μM, read-out: survival ratio of cells
Experimental: The cytotoxicity effect of cyclic peptide-tri-GalNAc were evaluated with the viability of HepG2 cells and analyzed by Cell Counting Kit-8 (CCK-8) (Dojindo Laboratories, Japan). The assay was performed according to manufacturer's protocol. Briefly, HepG2 were seeded in 96-well plates with a density of 6×10^4 cells per well and incubated at 37° C. with 5% CO2. As cells reached 70% confluence, medium was changed to MEM with 2% FBS and serial diluted cyclic peptide-tri-GalNAc with final concentration of 50, 25, 12.5, 6.25, 3.125 and 1.5625 μM were treated. After 24 h of treatment, 10 μL of CCK-8 solution was added to each well, and incubated for 1˜4 h at 37° C. The absorbance at 450 nm was measured by microplate reader (Thermo scientific, Multiskan sky, MA, USA). The survival ratio of cells treated with ID013, ID023 and commercialized tri-GalNAC are from 97˜100%.

[2] = Stability assay in human plasma (UPLC-FLR); format: in vitro ADME; details: 90% human plasma; for stability in human plasma: within 6 h; for remaining at 72 h, 20 nM: human plasma (90%), 37° C., read-out: remaining amount after 72 h of incubation
Experimental: FAM-labeled tri-GalNAc ligands were prepared with sterile water with final concentration of 200 nM. […] At the end of incubations, each mixture was added 300 μl of methanol to quench the reaction. The quenched samples were centrifuged at 20,000×g for 5 min and the supernatant was further filtered with 0.45 μm filters (Merck Millipore) to remove debris. The filtered samples were measured by UPLC-FLR detector (Waters, MA, USA).
5-FAM-CPMB-0013 (ID013), 5-FAM-CPMB-0023 (ID023) and commercialized tri-GalNAC were incubated with 90% of human plasma for different time points. The amount of each ligand was analyzed and quantified by UPLC system.

[3] = molecular target: asialoglycoprotein receptor (ASGPR) on HepG2 cells (human) (UniProt P07306); assay: flow cytometry, % FAM-positive HepG2 cells after 24 h with 200 nM ligand; negative control
[4] = molecular target: asialoglycoprotein receptor (ASGPR) on HepG2 cells (human) (UniProt P07306); assay: flow cytometry, % FAM-positive HepG2 cells after 24 h with 8 nM ligand; negative control
[5] = molecular target: asialoglycoprotein receptor (ASGPR) on HepG2 cells (human) (UniProt P07306); assay: flow cytometry, % FAM-positive HepG2 cells after 24 h with 1.6 nM ligand; negative control
[6] = molecular target: asialoglycoprotein receptor (ASGPR) on HepG2 cells (human) (UniProt P07306); assay: flow cytometry, % FAM-positive HepG2 cells after 24 h with 40 nM ligand; negative control
[7] = molecular target: T1, asialoglycoprotein receptor (ASGPR) on HepG2 cells (human, UniProt P07306 1-291; P07307 1-311); assay: flow cytometry titration on HepG2 cells (% FAM-positive cells, 1.6-200 nM, 24 h)
T1 construct: whole, on cells; also called ASGPR receptor on liver cells
T1 sequence (looked up) 1: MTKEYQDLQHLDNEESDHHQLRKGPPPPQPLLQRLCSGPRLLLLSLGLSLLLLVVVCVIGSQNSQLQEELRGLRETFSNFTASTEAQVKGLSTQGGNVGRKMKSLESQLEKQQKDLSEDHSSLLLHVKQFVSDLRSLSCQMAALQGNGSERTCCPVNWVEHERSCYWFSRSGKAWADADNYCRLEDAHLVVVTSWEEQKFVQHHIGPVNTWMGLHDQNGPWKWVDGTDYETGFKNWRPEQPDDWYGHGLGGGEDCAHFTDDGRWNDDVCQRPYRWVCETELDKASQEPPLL
T1 sequence (looked up) 2: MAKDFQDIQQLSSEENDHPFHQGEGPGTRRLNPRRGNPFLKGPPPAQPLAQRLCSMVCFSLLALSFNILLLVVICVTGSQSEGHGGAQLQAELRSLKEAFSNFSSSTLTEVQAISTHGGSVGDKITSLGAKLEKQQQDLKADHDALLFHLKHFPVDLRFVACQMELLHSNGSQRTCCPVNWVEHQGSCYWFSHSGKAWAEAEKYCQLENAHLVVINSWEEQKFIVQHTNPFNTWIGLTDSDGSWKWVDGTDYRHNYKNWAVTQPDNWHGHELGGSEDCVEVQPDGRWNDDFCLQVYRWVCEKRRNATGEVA
Experimental: Cells were seeded in 24-well plates with a density of 1.5×10⁵ cells per well and incubated under 37° C., 5% CO₂. After 18 h of incubation, media were replaced to MEM with 2% FBS and FAM-labeled ligands were added with final concentrations of 1.6, 8, 40 or 200 nM. After 24 h of incubation, cells were washed twice with 1×PBS and analyzed by LSRFortessa (BD Biosciences, NJ, USA). The binding efficiency was evaluated by the proportion of FAM positive cells.
HepG2 cell was treated by 14 cyclic peptide-tri-GalNAc ligand variants with serial diluted concentration of 1.6, 8, 40 or 200 nM. Commercialized tri-GalNAc used in Givosirna was used as positive control and cyclic peptide w/o tri-GalNAc was negative control. Among 14 variants, 5-FAM-CPMB-0013 (ID013), 5-FAM-CPMB-0023 (ID023) and 5-FAM-CPMB-0035 (ID035) had relatively higher binding ability as compared to others and commercialized tri-GalNAc. Equilibrium dissociation constant (kd) for 5-FAM-CPMB-0013 (ID013), 5-FAM-CPMB-0023 (ID023), 5-FAM-CPMB-0035 (ID035) and commercialized tri-GalNAC were 7.0, 8.6, 5.7 and 18 nM, respectively.

Molecule: CC(=O)N[C@H]1[C@H](OCCCC(=O)NCCCC[C@@H]2NC(=O)CNC(=O)[C@H](CCCCNC(=O)CCCO[C@@H]3O[C@H](CO)[C@H](O)[C@H](O)[C@H]3NC(C)=O)NC(=O)[C@H](CCC(=O)NCCCCCCNC(=O)c3ccc4c(c3)C(=O)OC43c4ccc(O)cc4Oc4cc(O)ccc43)NC(=O)[C@H](CCCCNC(=O)CCCO[C@@H]3O[C@H](CO)[C@H](O)[C@H](O)[C@H]3NC(C)=O)NC(=O)CNC2=O)O[C@H](CO)[C@H](O)[C@@H]1O [5-FAM-CPMB-0013]
viability at 24 h [1]: 97 to 100%
stability in human plasma [2]: highly stable
remaining at 72 h, 20 nM [2]: 92.7%

Molecule: CC(=O)N[C@H]1[C@H](OCCCC(=O)NCCCC[C@H]2NC(=O)CNC(=O)[C@@H](CCCCNC(=O)CCCO[C@@H]3O[C@H](CO)[C@H](O)[C@H](O)[C@H]3NC(C)=O)NC(=O)[C@@H](CCC(=O)NCCCCCCNC(=O)c3ccc4c(c3)C(=O)OC43c4ccc(O)cc4Oc4cc(O)ccc43)NC(=O)[C@@H](CCCCNC(=O)CCCO[C@@H]3O[C@H](CO)[C@H](O)[C@H](O)[C@H]3NC(C)=O)NC(=O)CNC2=O)O[C@H](CO)[C@H](O)[C@@H]1O [5-FAM-CPMB-0023]
viability at 24 h [1]: 97 to 100%
stability in human plasma [2]: highly stable
remaining at 72 h, 20 nM [2]: 85.8%

More lines, now with the values ahead:

Efficiency (%) (proportion of FAM positive cells) [3]: 0.4%
Efficiency (%) (proportion of FAM positive cells) [4]: 0.1%
Efficiency (%) (proportion of FAM positive cells) [5]: 0.1%
Efficiency (%) (proportion of FAM positive cells) [6]: 0.2%
B1: 5-FAM-CPMB-0031-Ac (negative control) (peptide)
peptide: cyclo(K[dE]([Linker2-5FAM])KGKG)
modifications: also: Lys side chains: Gal-1 with suffix -Ac per table, 'w/o tri-GalNAc' per text

Kd [7]: 7 nM
B2: 5-FAM-CPMB-0013 (peptide)
peptide: KEKGKG
modifications: head-to-tail cyclic; each Lys side chain carries GalNAc via linker Gal-3; Glu side chain carries Linker2 (6-aminohexyl amide) with 5-FAM
notes: also called ID013

— US20240218023A1, “CYCLIC PEPTIDE-N-ACETYLGALACTOSAMINE (GALNAC) CONJUGATES FOR DRUG DELIVERY TO LIVER CELLS” (MICROBIO (SHANGHAI) CO., LTD., priority 2021, published 2024)
